Experimental data as given in patent publication EP4361176A1 (CHUGAI SEIYAKU KABUSHIKI KAISHA, dated 2024).
Residue numbers refer to the chain shown, from its start. Names may count otherwise.

B1: H240-Kn125/L73-k0//H240-Hl076/L73-k0 (antibody, human IgG1, kappa)
heavy 1: QDQLVQSGAEVKKPGASVKVSCKASGFNIKDTYIQWVRQAPGQGLEWMGRIDPLRKQTKYREKFEGRVTITADTSTNTAYMELSSLRSEDTAVYYCVRSGREFDYWGQGTLVTVSSASTKGPSVFPLAPSSKSTSGGTAALGCLVKDYFPEPVTVSWNSGALTSGVHTFPAVLQSSGLYSLSSVVTVPSSSLGTQTYICNVNHKPSNTKVDKKVEPKSCDKTHTCPPCPAPEYQWGPMVFLFPPKPKDTLMISRTPEVTCVVVDVSDEEPEVKFNWYVDGVEVHNAKTKPREEQYNATYRVVSVLTVLHQDWLNGKEYKCKVSNKALPAPIEKTISKAKGQPREPQVCTLPPSRDELTKNQVSLWCLVKGFYPSDIAVEWESNGQPENNYKTTPPVLDSDGSFFLYSKLTVDKSRWQQGNVFSCSVMHEALHNHYTQKSLSLSP
heavy 2: QDQLVQSGAEVKKPGASVKVSCKASGFNIKDTYIQWVRQAPGQGLEWMGRIDPLRKQTKYREKFEGRVTITADTSTNTAYMELSSLRSEDTAVYYCVRSGREFDYWGQGTLVTVSSASTKGPSVFPLAPSSKSTSGGTAALGCLVKDYFPEPVTVSWNSGALTSGVHTFPAVLQSSGLYSLSSVVTVPSSSLGTQTYICNVNHKPSNTKVDKKVEPKSCDKTHTCPPCPAPELLGGPSVFLFPPKPKDTLMISRTPEVTCVVVDVSHEEPEVKFNWYVDGVEVHNAKTKPREEQYNSTYRVVSVLTVLHQDWLNGKEYKCKVSNDALPMPIEETISKAKGQPREPQVYTLPPSRCELTKNQVSLSCAVKGFYPSDIAVEWESNGQPENNYKTTPPVLDSDGSFFLVSKLTVDKSRWQQGNVFSCSVMHEALHNHYTQKSLSLSP
light: DIQMTQSPSSLSASVGDRVTITCRASQDIHKYIAWYQQKPGQAPRLLIQYTSTLQPGVPSRFSGSGSGTDYTFTISSLQPEDIATYYCLQYEQLRTFGGGTKVEIKRTVAAPSVFIFPPSDEQLKSGTASVVCLLNNFYPREAKVQWKVDNALQSGNSQESVTEQDSKDSTYSLSSTLTLSKADYEKHKVYACEVTHQGLSSPVTKSFNRGEC
notes: Heterodimerized anti-human Epiregulin antibody, asymmetric Fc variant; also called EGL-ART1; ART1
B2: H240-Kn443/L73-k0//H240-Hl408/L73-k0 (antibody, human IgG1, kappa)
heavy 1: B1 heavy 1 with Y233F, K325D
heavy 2: B1 heavy 2 with G235A, S297A, M329A
light: B1 light
notes: also called EGL-ART3; ART3
B3: H240-Kn456/L73-k0//H240-Hl446/L73-k0 (antibody, human IgG1, kappa)
heavy 1: B1 heavy 1 with Y233F, T249V, T306P, A329M, I331E
heavy 2: B1 heavy 2 with G235A, T249V, S297A, T306P, I331E
light: B1 light
notes: also called EGL-ART4; ART4
B4: H240-Kn461/L73-k0//H240-Hl443/L73-k0 (antibody, human IgG1, kappa)
heavy 1: B1 heavy 1 with Y233F, T249V, T306P, K325D, I331E
heavy 2: B1 heavy 2 with G235A, T249V, S297A, T306P, M329A, I331E
light: B1 light
notes: also called EGL-ART8; ART8
B5: H240-Kn462/L73-k0//H240-Hl441/L73-k0 (antibody, human IgG1, kappa)
heavy 1: B1 heavy 1 with Y233F, T249V, T306P, K325D
heavy 2: B1 heavy 2 with G235A, T249V, S297A, T306P, M329A
light: B1 light
notes: also called EGL-ART5; ART5
B6: H240-Kn462/L73-k0//H240-Hl445/L73-k0 (antibody, human IgG1, kappa)
heavy 1: B1 heavy 1 with Y233F, T249V, T306P, K325D
heavy 2: B1 heavy 2 with G235A, T249V, S297A, T306P, M329K, I331D
light: B1 light
notes: also called EGL-ART6; ART6
B7: H240-Kn494/L73-k0//H240-Hl514/L73-k0 (antibody, human IgG1, kappa)
heavy 1: B1 heavy 1 with Y233F, T249V, T306P, I331E
heavy 2: B1 heavy 2 with T249V, S297A, T306P, M329A, I331E
light: B1 light
notes: '1332E' read as I332E; also called EGL-ART10; ART10
B8: H240-Kn498/L73-k0//H240-Hl518/L73-k0 (antibody, human IgG1, kappa)
heavy 1: B1 heavy 1 with Y233F, T249V, T306P, A329M
heavy 2: B1 heavy 2 with T249V, S297A, T306P
light: B1 light
notes: also called EGL-ART12; ART12
B9: H240-GASDALIE/L73-k0 (antibody, human IgG1, kappa)
heavy: QDQLVQSGAEVKKPGASVKVSCKASGFNIKDTYIQWVRQAPGQGLEWMGRIDPLRKQTKYREKFEGRVTITADTSTNTAYMELSSLRSEDTAVYYCVRSGREFDYWGQGTLVTVSSASTKGPSVFPLAPSSKSTSGGTAALGCLVKDYFPEPVTVSWNSGALTSGVHTFPAVLQSSGLYSLSSVVTVPSSSLGTQTYICNVNHKPSNTKVDKKVEPKSCDKTHTCPPCPAPELLAGPDVFLFPPKPKDTLMISRTPEVTCVVVDVSHEDPEVKFNWYVDGVEVHNAKTKPREEQYNSTYRVVSVLTVLHQDWLNGKEYKCKVSNKALPLPEEKTISKAKGQPREPQVYTLPPSRDELTKNQVSLTCLVKGFYPSDIAVEWESNGQPENNYKTTPPVLDSDGSFFLYSKLTVDKSRWQQGNVFSCSVMHEALHNHYTQKSLSLSP
light: B1 light
B10: H240-Kn037/L73-k0//H240-Hl036/L73-k0 (antibody, human IgG1, kappa)
heavy 1: B9 heavy with L329A, Y348C, T365W
heavy 2: B9 heavy with L329A, D355C, T365S, L367A, Y406V
light: B1 light
notes: also called EGL-GASDIE; GASDIE
B11: 04H1207-G1m/04L1086-lam1 (antibody, human IgG1, lambda, V domains shown)
VH: EVQLVESGGGLVKPGGSLRLSCAASGFTFSSKTMNWVRQAPGKGLEWVSSISTRSGYIYYAESVKGRFTISRDNAKNSLYLQMNSLRAEDTAVYYCARYGKREDMLWVFDYWGQGTLVTVSS
VL: QSALTQPPSASGSPGQTVTISCDGPSTGVGDYNYVHWYQQHPGKAPKLMIYFTSKKPSGVPDRFSGSKSGNTASLTVSGLQAEDEADYFCQTYAAPLGPMFGGGTKLTVLG
B12: 04H1077-G1m/04L1034-lam1 (antibody, human IgG1, lambda, V domains shown)
VH: B11 VH with G10D, S17G, K32R
VL: B11 VL with G28D, Y34W, H36S, Q91S
B13: 04H1077-G1m/04L1041-lam1 (antibody, human IgG1, lambda, V domains shown)
VH: B11 VH with G10D, S17G, K32R
VL: B11 VL with G28D, Q91S
B14: 04H1077-G1m/04L1066-lam1 (antibody, human IgG1, lambda, V domains shown)
VH: B11 VH with G10D, S17G, K32R
VL: B11 VL with G28D, Y34W, Q91S

Each binder was assayed against T1, hFcyRIIaH on hFcyRIIaH-expressing Jurkat cells (human, UniProt P12318 34-317) (assay: cell-based or functional assay).
T1 sequence (looked up): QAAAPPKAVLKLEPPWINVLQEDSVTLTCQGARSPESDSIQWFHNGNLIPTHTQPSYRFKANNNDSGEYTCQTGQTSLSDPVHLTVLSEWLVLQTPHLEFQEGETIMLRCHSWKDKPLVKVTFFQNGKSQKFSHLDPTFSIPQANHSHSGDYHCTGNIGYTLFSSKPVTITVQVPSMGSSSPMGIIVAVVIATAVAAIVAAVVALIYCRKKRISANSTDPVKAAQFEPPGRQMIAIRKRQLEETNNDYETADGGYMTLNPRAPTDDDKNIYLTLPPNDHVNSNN

| Binder | EC50 value (µg/mL), ADCP reporter bioassay (fold induction of luminescence), Hepa1-6/hEREG target cells [µg/mL] |
| --- | --- |
| B1 | 0.0353 |
| B2 | 0.0158 |
| B3 | 0.0432 |
| B4 | 0.0171 |
| B5 | 0.0245 |
| B6 | 0.0192 |
| B7 | 0.0419 |
| B8 | 0.085 |
| B9 | 0.0324 |
| B10 | 0.0149 |

The binders below were run against T2, human CTLA4 (soluble analyte of the Biacore assays of Reference Example 3-3) (human, UniProt P16410 36-161) (assay: SPR, 1000 nM CTLA4, per unit antibody, ATP 100 uM).
T2 construct: also called hCTLA4
T2 sequence: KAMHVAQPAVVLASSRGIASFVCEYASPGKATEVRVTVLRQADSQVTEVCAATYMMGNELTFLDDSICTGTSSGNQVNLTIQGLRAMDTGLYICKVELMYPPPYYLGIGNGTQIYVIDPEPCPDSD

| Binder | Binding to Human CTLA4 |
| --- | --- |
| B11 | 0.196 |
| B12 | 0.114 |
| B13 | 0.172 |
| B14 | 0.185 |

The binders below were run against T3, human FcγRIIIa F extracellular domain (human, UniProt P08637 17-208) (assay: SPR; KD for FcγRIIb divided by KD for this FcγR).
T3 construct: extracellular domain; Made by the method of WO2014104165; also called hFcγR IIIa F; FcyRIIIaF
T3 sequence (P08637 17-208): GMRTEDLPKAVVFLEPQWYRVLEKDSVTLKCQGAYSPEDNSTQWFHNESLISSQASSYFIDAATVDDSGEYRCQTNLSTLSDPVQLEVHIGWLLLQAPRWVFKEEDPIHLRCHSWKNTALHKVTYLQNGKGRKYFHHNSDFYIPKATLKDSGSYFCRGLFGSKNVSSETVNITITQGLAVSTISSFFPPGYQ

| Binder | A/I ratio (KD for FcγRIIb divided by KD for each FcyR) |
| --- | --- |
| B1 | 4950 |
| B2 | 396 |
| B3 | 9940 |
| B4 | 2350 |
| B5 | 399 |
| B6 | 976 |
| B7 | 3160 |
| B8 | 4310 |
| B9 | 89.3 |
| B10 | 18.9 |

The binders below were run against T4, human FcγRIIa H extracellular domain (human, UniProt P12318 34-217) (assay: SPR; KD for FcγRIIb divided by KD for this FcγR).
T4 construct: extracellular domain; Made by the method of WO2014104165; also called hFcγR IIa H; FcyRIIaH
T4 sequence (looked up): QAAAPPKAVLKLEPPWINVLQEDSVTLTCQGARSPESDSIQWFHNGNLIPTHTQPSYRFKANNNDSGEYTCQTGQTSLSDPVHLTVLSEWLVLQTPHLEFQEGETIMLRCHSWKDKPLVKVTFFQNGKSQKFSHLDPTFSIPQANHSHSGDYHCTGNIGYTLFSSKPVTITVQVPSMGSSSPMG

| Binder | A/I ratio (KD for FcγRIIb divided by KD for each FcyR) |
| --- | --- |
| B1 | 47.4 |
| B2 | 181 |
| B3 | 65.2 |
| B4 | 47.2 |
| B5 | 240 |
| B6 | 307 |
| B7 | 17.3 |
| B8 | 60.3 |
| B9 | 16.5 |
| B10 | 18.2 |

The binders below were run against T2, human CTLA4 (soluble analyte of the …) (assay: SPR, 1000 nM CTLA4, per unit antibody, ATP 1 uM).

| Binder | Binding to Human CTLA4 |
| --- | --- |
| B11 | 0.047 |
| B12 | 0.007 |
| B13 | 0.023 |
| B14 | 0.057 |

These binders were tested against hFcyRIIIaV on hFcyRIIIaV-expressing Jurkat cells (human, UniProt P08637 17-254) (assay: cell-based or functional assay).
Sequence of hFcyRIIIaV on hFcyRIIIaV-expressing Jurkat cells (P08637 17-254): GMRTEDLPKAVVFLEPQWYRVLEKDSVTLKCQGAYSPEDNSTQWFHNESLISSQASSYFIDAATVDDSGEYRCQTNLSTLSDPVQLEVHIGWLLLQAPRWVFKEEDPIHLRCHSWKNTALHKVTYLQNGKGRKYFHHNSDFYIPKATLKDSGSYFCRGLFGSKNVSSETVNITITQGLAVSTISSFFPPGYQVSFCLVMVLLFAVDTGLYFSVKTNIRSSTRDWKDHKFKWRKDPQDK

| Binder | EC50 value (µg/mL), ADCC reporter bioassay (fold induction of luminescence), Hepa1-6/hEREG target cells [µg/mL] |
| --- | --- |
| B1 | 0.000716 |
| B2 | 0.00153 |
| B3 | 0.000789 |
| B4 | 0.00107 |
| B5 | 0.00167 |
| B6 | 0.0015 |
| B7 | 0.000107 |
| B8 | 0.000304 |
| B9 | 0.00208 |
| B10 | 0.0037 |

The binders below were run against T2, human CTLA4 (soluble analyte of the …) (assay: SPR, 1000 nM CTLA4, per unit antibody, no ATP).

| Binder | Binding to Human CTLA4 |
| --- | --- |
| B11 | 0.013 |
| B12 | 0.004 |
| B13 | 0.006 |
| B14 | 0.02 |

These binders were tested against T2, human CTLA4 (soluble analyte of the …) (assay: SPR, 1000 nM CTLA4, per unit antibody, ATP 10 uM).

| Binder | Binding to Human CTLA4 |
| --- | --- |
| B11 | 0.137 |
| B12 | 0.041 |
| B13 | 0.094 |
| B14 | 0.142 |
